To fix the notation:
B1: Segment polarity protein dishevelled homolog DVL-3, residues 2 to 81; numbered along this chain, Q92997 (parent)
chain: GETKIIYHLDGQETPYLVKLPLPAERVTLADFKGVLQRPSYKFFFKSMDDDFGVVKEEISDDNAKLPCFNGRVVSWLVSA

± gives the uncertainty stated by the source.

The data set covers variants of B1. The data set is described as follows: abundance fitness (aPCA) (normalised: wild type 0, dead -1); higher = more abundant; growth selection in yeast, the domain comes from the species named. The settings on record: Homo sapiens.
On to GETKIIYHLDGQETPYLVKLPLPAERVTLADWKGVLQRPSYKFFFKSMDDDFGVVKEEISDDNAKLPCFNGRVVSWLVSA, for which the abundance fitness was -0.61 ± 0.1.
The result for GETKIIYHLDGQETPYLVKLPLPAERVTLADVKGVLQRPSYKFFFKSMDDDFGVVKEEISDDNAKLPCFNGRVVSWLVSA reads -0.819 ± 0.1.
The result for GETKIIYHLDGQETPYLVKLPLPAERVTLADRKGVLQRPSYKFFFKSMDDDFGVVKEEISDDNAKLPCFNGRVVSWLVSA reads -0.543 ± 0.073; that for GETKIIYHLDGQETPYLVKLPLPAERVTLADHKGVLQRPSYKFFFKSMDDDFGVVKEEISDDNAKLPCFNGRVVSWLVSA, -0.447 ± 0.23.
The result for GETKIIYHLDGQETPYLVKLPLPAERVTLADLKGVLQRPSYKFFFKSMDDDFGVVKEEISDDNAKLPCFNGRVVSWLVSA reads -0.337 ± 0.07; that for GETKIIYHLDGQETPYLVKLPLPAERVTLADKKGVLQRPSYKFFFKSMDDDFGVVKEEISDDNAKLPCFNGRVVSWLVSA, -1.01 ± 0.21.
GETKIIYHLDGQETPYLVKLPLPAERVTLADGKGVLQRPSYKFFFKSMDDDFGVVKEEISDDNAKLPCFNGRVVSWLVSA: the abundance fitness was -0.916 ± 0.1.
As to GETKIIYHLDGQETPYLVKLPLPAERVTLADAKGVLQRPSYKFFFKSMDDDFGVVKEEISDDNAKLPCFNGRVVSWLVSA, the abundance fitness is -0.622 ± 0.1.
As for GETKIIYHLDGQETPYLVKLPLPAERVTLADIKGVLQRPSYKFFFKSMDDDFGVVKEEISDDNAKLPCFNGRVVSWLVSA, the abundance fitness is -0.469 ± 0.16.
The same measure for GETKIIYHLDGQETPYLVKLPLPAERVTLADPKGVLQRPSYKFFFKSMDDDFGVVKEEISDDNAKLPCFNGRVVSWLVSA: -0.686 ± 0.18.
Regarding GETKIIYHLDGQETPYLVKLPLPAERVTLADTKGVLQRPSYKFFFKSMDDDFGVVKEEISDDNAKLPCFNGRVVSWLVSA, the abundance fitness is -0.598 ± 0.13.
The result for GETKIIYHLDGQETPYLVKLPLPAERVTLARFKGVLQRPSYKFFFKSMDDDFGVVKEEISDDNAKLPCFNGRVVSWLVSA reads -0.711 ± 0.093; that for GETKIIYHLDGQETPYLVKLPLPAERVTLAQFKGVLQRPSYKFFFKSMDDDFGVVKEEISDDNAKLPCFNGRVVSWLVSA, -0.634 ± 0.17; that for GETKIIYHLDGQETPYLVKLPLPAERVTLAYFKGVLQRPSYKFFFKSMDDDFGVVKEEISDDNAKLPCFNGRVVSWLVSA, -0.714 ± 0.2.
The result for GETKIIYHLDGQETPYLVKLPLPAERVTLATFKGVLQRPSYKFFFKSMDDDFGVVKEEISDDNAKLPCFNGRVVSWLVSA reads -0.217 ± 0.087; that for GETKIIYHLDGQETPYLVKLPLPAERVTLAWFKGVLQRPSYKFFFKSMDDDFGVVKEEISDDNAKLPCFNGRVVSWLVSA, -0.618 ± 0.14.
For GETKIIYHLDGQETPYLVKLPLPAERVTLAVFKGVLQRPSYKFFFKSMDDDFGVVKEEISDDNAKLPCFNGRVVSWLVSA, the abundance fitness was -0.448 ± 0.086.
The same measure for GETKIIYHLDGQETPYLVKLPLPAERVTLASFKGVLQRPSYKFFFKSMDDDFGVVKEEISDDNAKLPCFNGRVVSWLVSA: -0.577 ± 0.11.
The same measure for GETKIIYHLDGQETPYLVKLPLPAERVTLADFTGVLQRPSYKFFFKSMDDDFGVVKEEISDDNAKLPCFNGRVVSWLVSA: -0.618 ± 0.13; for GETKIIYHLDGQETPYLVKLPLPAERVTLADFHGVLQRPSYKFFFKSMDDDFGVVKEEISDDNAKLPCFNGRVVSWLVSA: -0.631 ± 0.24; for GETKIIYHLDGQETPYLVKLPLPAERVTLADFVGVLQRPSYKFFFKSMDDDFGVVKEEISDDNAKLPCFNGRVVSWLVSA: -0.762 ± 0.11.
Regarding GETKIIYHLDGQETPYLVKLPLPAERVTLADFPGVLQRPSYKFFFKSMDDDFGVVKEEISDDNAKLPCFNGRVVSWLVSA, the abundance fitness was -1.13 ± 0.24.
The result for GETKIIYHLDGQETPYLVKLPLPAERVTLADFCGVLQRPSYKFFFKSMDDDFGVVKEEISDDNAKLPCFNGRVVSWLVSA reads -0.589 ± 0.16; that for GETKIIYHLDGQETPYLVKLPLPAERVTLADFIGVLQRPSYKFFFKSMDDDFGVVKEEISDDNAKLPCFNGRVVSWLVSA, -0.939 ± 0.26; that for GETKIIYHLDGQETPYLVKLPLPAERVTLADFDGVLQRPSYKFFFKSMDDDFGVVKEEISDDNAKLPCFNGRVVSWLVSA, -1.06 ± 0.29.
The result for GETKIIYHLDGQETPYLVKLPLPAERVTLADFEGVLQRPSYKFFFKSMDDDFGVVKEEISDDNAKLPCFNGRVVSWLVSA reads -0.672 ± 0.12; that for GETKIIYHLDGQETPYLVKLPLPAERVTLADFGGVLQRPSYKFFFKSMDDDFGVVKEEISDDNAKLPCFNGRVVSWLVSA, -0.704 ± 0.078.
The same measure for GETKIIYHLDGQETPYLVKLPLPAERVTLADFWGVLQRPSYKFFFKSMDDDFGVVKEEISDDNAKLPCFNGRVVSWLVSA: -0.52 ± 0.091; for GETKIIYHLDGQETPYLVKLPLPAERVTLADFNGVLQRPSYKFFFKSMDDDFGVVKEEISDDNAKLPCFNGRVVSWLVSA: -0.087 ± 0.14; for GETKIIYHLDGQETPYLVKLPLPAERVTLADFSGVLQRPSYKFFFKSMDDDFGVVKEEISDDNAKLPCFNGRVVSWLVSA: -0.527 ± 0.091.
For the variant GETKIIYHLDGQETPYLVKLPLPAERVTLADFFGVLQRPSYKFFFKSMDDDFGVVKEEISDDNAKLPCFNGRVVSWLVSA, the abundance fitness is -0.661 ± 0.2.
The same measure for GETKIIYHLDGQETPYLVKLPLPAERVTLADFRGVLQRPSYKFFFKSMDDDFGVVKEEISDDNAKLPCFNGRVVSWLVSA: -0.693 ± 0.083.
The same measure for GETKIIYHLDGQETPYLVKLPLPAERVTLADFAGVLQRPSYKFFFKSMDDDFGVVKEEISDDNAKLPCFNGRVVSWLVSA: -1.08 ± 0.18.
With GETKIIYHLDGQETPYLVKLPLPAERVTLADFLGVLQRPSYKFFFKSMDDDFGVVKEEISDDNAKLPCFNGRVVSWLVSA, the abundance fitness is -0.936 ± 0.13.
The same measure for GETKIIYHLDGQETPYLVKLPLPAERVTLADFQGVLQRPSYKFFFKSMDDDFGVVKEEISDDNAKLPCFNGRVVSWLVSA: -0.94 ± 0.21.

Source of the values: the Human Domainome abundance scans (Beltran et al. 2025).
